The series is described as follows: label from the status in PepcDB records.
For “MNPIILALFDVSIFILLAEILSSLVQKYGLPKLIGELLAGMIIGPYALGSLLNQLLGFPLIGINSYIEFLAEFSVILLIFASGLEHGIAPIKSSGILGFLGATFGALLPFFAAYYFYISSFGLDSALILGTAMGATSLAAVASIIEEGKLKGKGINFMVSSAAADDVVDLLLLSVVIAILQGESTSVTSISLKIIALVVIWVVILVVSIILIPKITDRISDKYIEEFPLAVLFGLTLLMVSLGYSPIISAFVAGVAFANSVKNSKIKEISSTLLSVFGPLFFVYIGAEVNFLTLNLNTVILSLELTAIATIFKWLGIFPFALAYLRNAKAANTVALGMVPRGETGLVIASLGLSYNALNQEEFEGIVFMSIFTTLIGSALFKIYAKKHLVS”, the protein production result is “failed”.

As to “MNPPSGPRVPPSPTQEPSCMATPAPPSWWDSSQSSISSLGRLPSISPTAPGTWAAAWVPLPTVDVPDHAHYTLGTVILLVGLTGMLGNLTVIYTFCRSRSLRTPANMFIINLAVSDFLMSFTQAPVFFTSSLYKQWLFGETGCEFYAFCGALFGISSMITLTAIALDRYLVITRPLATFGVASKRRAAFVLLGVWLYALAWSLPPFFGWSAYVPEGLLTSCSWDYMSFTPAVRAYTMLLCCFVFFLPLLIIIYCYIFIFRAIRETGRALQTFGACKGNGESLWQRQRLQSECKMAKIMLLVILLFVLSWAPYSAVALVAFAGYAHVLTPYMSSVPAVIAKASAIHNPIIYAITHPKYRVAIAQHLPCLGVLLGVSRRHSRPYPSYRSTHRSTLTSHTSNLSWISIRRRQESLGSESEVGWTHMEAAAVWGAAQQANGRSLYGQGLEDLEAKAPPRPQGHEAETPGKTKGLIPSQDPRM”, the protein production entry was “failed”.

As to “MNPSHGRGLGSAGGSSSGRNQGGGGETVVEMFPSGLRVLVVDDDPTCLMILERMLRTCLYEVTKCNRAEMALSLLRKNKHGFDIVISDVHMPDMD”, the protein production result is reported as “failed”.

With “MNQCRLRSLARIRRSLTLGLRGTDQHVLARQALRTIQTTSQRRGVHDLDSFANGCSAAYIEGLYNKWKRNPSSVDESWNELFSSNDWSSPKRSPLQVSHSRKYRRPPVERIAVKARSGERTASGGASAAPAAPPSDWKNIDDHHVIQAIIRAYQSRGHLAADLDPLGIVGPKKRTSVDGTQRHAAREVLRQHFSYIFNDLNTVFKLPSSTMIGGDQEFLSLKEILDRLERIYCGHIGVEYMQITSLTKTNWLRDRFEKPGGLDLTKEEKKLILERLTRSTGFENFLAKKFSSEKRFGLEGCDIMIPAIKEVVDRATDHGVESILIGMAHRGRLNVLANICRKPISDILSQFHGLQATDSGSGDVKYHLGVFQERLNRQTNRMVRITVVANPSHLEHVNPVLLGKARAEMFQRGDTCGSTVMPIIIHGDASFSGQGVVYESMHLSDLPNYTTYGTIHIVSNNQVGFTTDPRFSRSSRYCTDVAKVVNAPILHVNADDPEACIQCARIAIDYRTRFKKDVVIDIVGYRRNGHNEADEPMFTQPLMYQRIKKLKPCLQLYADKLIKEGVVTDSEFKAMVSSYEKICEDAWAKSKTIKTIKYSSWIDSPWPGFFEGRDRLKLCPTGISTDTLKTIGNMFSTPPPPEHKFETHKGILRILAQRTQMVQDKVADWSLGEAFAFGSLLKEGIHVRLSGQDVERGTFSHRHHVLHHQSEDKVVYNSLDHLYPDQAPYSVSNSSLSECAVLGFEHGYSMASPNALVMWEGQFGDFCNTAQCIIDTFIASGETKWVRQSGVVMLLPHSMEGMGPEHSSGRIERFLQMSDDDPDVYPDTCDADFVARQLMNVNWIVTNLSTPANLFHCLRRQVKMGFRKPLINFSPKSLLRHPLARSPFKDFNECSCFQRIIPDKGPAGKQPDCVQKLVFCSGKVYYDLVKERDDHEQVETVALVRVEQLCPFPYDLISQQLELYPKAELLWAQEEHKNMGAWSYVQPRFDTALLKNENESRCVSYHGRPPSASPATGNKVQHYNEYKALITSIFGELTPENKKRIEDRIKKQQAKAKADAQSKPSTKPPAAPPKGGSSPPPGPAPRKPLISLPSRPPRGGKQRSGSAPAPNLVDEDSAARNREPDASAYDGASPSAWKRSGSAPAPSVVPRASASRSPSRKSPSPSHDGISPSTRQESLSKKKSGSAPAPTPTSRGPFRTAPSNTEFIKRRPAKDYGSRNETQSTPGESELDPTKPQP”, the protein production result is listed as “failed”.

As to “MNQGKIITVSGPLVVASGMQEANIQDICRVGHLGLVGEIIEMRRDQASIQVYEETSGIGPGEPVVTTGCPLSVELGPGLISEMFDGIQRPLDRFQKATDSDFLIRGVAIPSLDRKAKWAFIPKLSVGQEVVAGDILGTVQETAVIEHRIMVPYKVSGTLVAIHAGDFTVTDTVYEIKQEDGSIYQGSLMQTWPVRQSRPVAQKLIPVEPLVTGQRVIDTFFPVTKGGAAAVPGPFGAGKTVVQHQIAKFANVDIVIYVGCGERGNEMTDVLNEFPELIDPNTGQSIMERTVLIANTSNMPVAAREASIYTGITIAEYFRDMGYSVAIMADSTSRWAEALREMSGRLQEMPGDEGYPAYLGSRIAEYYERAGRVRTLGSQEREGTITAIGAVSPPGGDISEPVTQNTLRIVKVFWGLDAPLAQRRHFPAINWLTSYSLYQDDVGSYIDRKQQSNWSNKVTRAMAILQREASLEEIVRLVGLDSLSEQDRLTMAVARQIREDYLQQNAFDSVDTFTSFPKQEAMLTNILTFNEEASKALSLGAYFNEIMEGTAQVRDRIARSKFIPEENLEQIKGLTQKVTKEIHHVLAKGGI”, the protein production entry was “failed”.

In the case of “MNQLPNCPKCLSEYCYEDGDVLICPECTHEWPKNSNNNDEESAKIIKDANGNLLQNGDTITVVKDLKIKGSSQVIKVGTKVKNIRLVDGDHDIDCRIDGIGAMKLKSQFVKKILEHHHHHH”, the protein production result was “failed”.

For the sequence “MNQNKITAGGLEFLVRFAAPTDRLKINDLMIDTARWLKESGSTQWSDILHGFDVHNIEQRIELGEVALFETEAGALAGAMIIRKTPSDWDTDLWEDLAIDKAYYLHRIMVSRAFSGISLSKQMIYFAEKLGIEMSVPFIRLDCIESNETLNQMYVRYGFQFSGKKNGFYLYQKELSQK”, the protein production result is reported as “not failed”.

For “MNQNWHATLIRHLLLLITVCLIGGLVSGYYGWSLAIGLALYLGWTLKQLLRLHDWLRNHQPDEAPPDGYGLWGEVFDSIYHLQRRDQRVRGRLQAVIDRVQESTAALRDAVIMLDSDGNLEWWNRAAETLLGFKTPQDGGQQVTNLVRHPLFKEYFEAENYLEPLEIPSPINDRMRVQLHITRYGNNEHLMLVRDVTRIHQLEQMRKDFVANVSHELRTPLTVITGYLETLLDNVEDVNPRWSRALQQMSQQGSRMQTLLNDLLLLAKLEATDYPSDNQPVAVDALLAAIKNDAQALSGPRNQRINLEAAPGVKLKGSESELRSAFSNLVFNAVKYTQDEGSIRIRWWADAQGAHLSVQDSGVGIDAKHLPRLTERFYRVDSSRASNTGGTGLGLAIVKHVLMRHRGKLEISSVPGHGSTFTCHFAPAQLANEKA”, the protein production entry is “failed”.

With “MNQPDIKGSCASEFTKVRDAFERNFVLRNEVGAAVAVWVDGDLVVNLWGGSADAGGTRPWQHDTLATVLSGTKALTATCVHQLVDRGELDLHAPVARYWPEFGQAGKQAITLAMVMSHRSGAIGPRGRLGWEQVADWDFVCEQLAAAEPWWQPGAAQGYHMTTFGFILGEVFRRVTGRTVGQYLRTEIAEPLGADVHIGLHPGEQLRCADLVDKPHIRQLLADVQAPGYPTSLNEHPKAALSVSMGFAPDDELGSNDLQLWRQIEFPGTNGQVSALGLATFYNGLAQEKLLSREHMELVRVSQGGFDTDLVLGPRVADHGWGLGYMLNQRGVNGPNPRIFGHGGLGGSFGFVDLEHRIGYAYVMNRFDATKANADPRSVVLSNEVYAALGVNRS”, the protein production result is “failed”.

In the case of “MNQQLLAKTFVELADNLVADFDLIDFLRLLTDRCVGMLDASAAGVLLADRNGELRVMAASDEQVRLLELFQLQNDEGPCLDCFRTGAPVTVPDLSAVTARWPRFAVQARRSGFGAVQALPMRLRDEVVGALNLFRATPGPFDPAATPLAQALADVATISLLQQRTAHRSTVLNEQLQTALNSRVLIEQAKGKLAERQGVDMERAFTALRTYARAHNRRLSDVARAFIDNSEPLTGLGS”, the protein production entry was “failed”.

As to “MNRFSRARSYISLVLFRKSSYVTSHIPWNQCFYTSLKSSLKPASVSVSSVHCYSSRSKTAKSKMSKSSVSVSDSDKEKDAFFVVRKGDIVGIYKDLIDCQAQVGSSVYDPPVSVYKGYSLLKDTEECLSTVGLKKPLYVFRALDLKEDMFGALTPCLFQDQLPSASMSVEKLAELEPSADTSYETCIIEFDGASKGNPGLSGAAAVLKTEDGSLIFKMRQGLGIATNNAAEYHGLILGLKHAIEKGYTKIKVKTDSKLVCMQMKGQWKVNHEVLSKLHKEAKQLSDKCLSFEISHVLRSLNSDADEQANMAARLSEGEVEVA”, the protein production entry is “failed”.

On to “MNRIKEVLEEKGIKQTWLAEKLGKSFSIVNSYVCNRRQPSLDILFEIAKILEVDVRVLIGTKENRQKSK”, for which the protein production entry is “not failed”.

As to “MNRLREALKERGITQTELSTRLGKSFNMVNLYVANKHQPSIPTLFQIAEILDMDVRDLLVSNKQQNK”, the protein production entry is “failed”.

With “MNRLRTSLTALAAAITLSGLANAATRYEELANQPFEKGFPTETAARNLIDELVFQRAVQSYLWALPAINIWSMKEASEKEFGAGYNILPTWKKRINAKTLVTTPNSDLVYAMSYLDLQKYGPLVVEAPPGVQGMFDDFFQRPIVGPTIDGKTWRGDVGLAGPDKGKGGTYVLLPPDYKGPEPTEGYVYRSRTNNVFLFWRTFFKDPKDLSVPVAEVERTKIYPLGKKDEALPMQFPDATGAPINMLFPEDGRYFDMLSRFIDAEAVDPADMDMRGFLHTLGIEKGKPFAPDAQRRKLLDEAARTAFKMSKVVTSHLLLKEPGGLYYKDRQYVNTFAGENTEFQSSGSFTNLEQRVAFFTSAYSDSPGMVMNMVGAGAKYPATTRDADGKFLDGAQTYKLNLPANVPAALFWSVTAYDNLTASGLDNGQPFPSLNQMDKPVQNSDGSTDIYFGPKSPGEGKNWIKTVPDKGFLVIVRLYGPKQAFFDQSWKPSDLLKQ”, the protein production entry is on record as “failed”.

As to “MNRRDFLQFGLRGIVVAGLGKGFYNTTSEQVEIVRTSVKIRNLPAALQGLKIGLLTDLHASFVVSSETIRSAGRLLMAEKPDLIVMTGDYISGSTRFLSGSVGQFKKEYLSKCIDALSGLKAPLGIYGVLGNHDFWSGPESVKAICEAFTRQMGMVWLRNSSVEIRRGRGSLHLLGVDDYWEPSCSLAAACKGVDTDGIKILLSHNPDINDEIFLLRERIDLVLSGHTHGGQVVVPFLGQPVMPSKFGQKYRAGLVRDGDRQTYISRGVGCLLAPIRLNCPPEATVLTLTLEHHHHHH”, the protein production result is recorded as “not failed”.

As for “MNRSVRLITIALLLAALASLTYAVVRPFLVSIGWAVFVSYVAWPLHAWSQRRFEGRKTLSALVTTALLGSVVLAPLIWLAVLLQGEVSELIRSLPDWLEQKPRLPDFVSHIPYFGNELQAVVDQFEDLHGLLKRHAPEWVRRLGSPVLGIMTTLVQNAAVLFMTLFTLFFLFRDGLQLATDVRRVFTRVLGERLKGYFATIEATVKAVLYGIVLTALAQGFLAGLGYWIVGVKAPIVLGIATTLIAMIPFGTPFAWGSVSIWLLLQGETWAGVSLALWGTLVISWIDNIIRPLVISSATHIPFVLVMFGVLGGLASFGFIGLVLGPVILAMALAVWREWLQQVREAGLRGEDGSGTGPGERR”, the protein production entry was “failed”.

With “MNRTAMRASQKDFENSMNQVKLLKKDPGNEVKLKLYALYKQATEGPCNMPKPGVFDLINKAKWDAWNALGSLPKEAARQNYVDLVSSLSPSLESSSQVEPGTD”, the protein production result is given as “not failed”.

“MNRTMSSINVLSLPVFNRDASGYDALRRGLIPCFDAFYGTALDLIDDWRDAEKLRVLDLGAGTGLFTAMLLTRHPDAQIHLIDASEKMLEQARKRFDGNPAITYAVADMANTELGGPWDLIISALAIHHLEDIGKKHLFGEIRGALSEGGLFVNVEQVLGHDPEVEARYARTWLQQVRRLGVAEVEIAKAHERMSHDRCSPLENQLQWMRDTGFCEIDCSFKAWRFAVLSGRR”: the protein production result was “failed”.

The record behind these values is a protein production outcome set (Wang et al. 2014).
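Also: failed if final PepcDB status was selected cloned or expressed and not failed if soluble or beyond.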
